For one test, the target named is PD-L1-ECD (UniProt Q9NZQ7). The test is described as follows: BLI.
Test [1] concerns the target CD16a-ECD (human) (UniProt P08637).
Test [2] shares this target. In words: BLI.

The source of these data is publication PMC8141644.

Read-outs that look alike come from different tables or passages of the source.

Sequence of CD16a-ECD (human) (P08637 17-208): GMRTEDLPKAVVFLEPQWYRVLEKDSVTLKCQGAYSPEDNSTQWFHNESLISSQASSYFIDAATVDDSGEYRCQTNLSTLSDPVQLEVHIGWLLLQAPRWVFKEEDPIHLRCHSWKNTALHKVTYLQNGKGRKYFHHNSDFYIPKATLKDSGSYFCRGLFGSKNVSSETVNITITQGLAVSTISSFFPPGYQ
Sequence of PD-L1-ECD (Q9NZQ7 19-238): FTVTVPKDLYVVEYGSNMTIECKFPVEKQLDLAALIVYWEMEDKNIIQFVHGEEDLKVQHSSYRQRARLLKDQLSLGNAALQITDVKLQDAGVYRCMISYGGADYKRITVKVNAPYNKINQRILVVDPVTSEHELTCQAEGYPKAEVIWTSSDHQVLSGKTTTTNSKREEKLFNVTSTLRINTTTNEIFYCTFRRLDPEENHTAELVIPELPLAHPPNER

The substance ICI12 (from UniProt P01857) had a Kd with PD-L1-ECD of 5.8 nM.
Take ICI13 (from UniProt P01857): the Kd with PD-L1-ECD was determined as 3.2 nM.
In turn, “bispecific hdFEB4-1-4×hNKE14-8 (bispecific antibody)” registered an EC50 of the ADCC reporter bioassay (Promega G7010, luciferase; A431 target cells; 0.2 nM – 13.3 nM antibody) with CD16a-ECD (human) [1] of 0.362 nM.
Consider “bispecific hdFEB4-1-4×hNKE14-8 (from UniProt P01857)”, for which, in the test with CD16a-ECD (human) [2] (bispecific antibody), the Kd stood at 16.5 nM.
Regarding hNKE14-8 (from UniProt P01857), the Kd in the test with CD16a-ECD (human) [2] came to 15.5 nM.
